This is an account of results in patent US20100234283A1.

For orientation: Kd means the free concentration of one partner at which half of the binding sites on the other are occupied at equilibrium, for simple one-to-one binding. Read a low Kd as higher affinity.

T1: KDR-Fc (R&D System), P35968
T1 chain: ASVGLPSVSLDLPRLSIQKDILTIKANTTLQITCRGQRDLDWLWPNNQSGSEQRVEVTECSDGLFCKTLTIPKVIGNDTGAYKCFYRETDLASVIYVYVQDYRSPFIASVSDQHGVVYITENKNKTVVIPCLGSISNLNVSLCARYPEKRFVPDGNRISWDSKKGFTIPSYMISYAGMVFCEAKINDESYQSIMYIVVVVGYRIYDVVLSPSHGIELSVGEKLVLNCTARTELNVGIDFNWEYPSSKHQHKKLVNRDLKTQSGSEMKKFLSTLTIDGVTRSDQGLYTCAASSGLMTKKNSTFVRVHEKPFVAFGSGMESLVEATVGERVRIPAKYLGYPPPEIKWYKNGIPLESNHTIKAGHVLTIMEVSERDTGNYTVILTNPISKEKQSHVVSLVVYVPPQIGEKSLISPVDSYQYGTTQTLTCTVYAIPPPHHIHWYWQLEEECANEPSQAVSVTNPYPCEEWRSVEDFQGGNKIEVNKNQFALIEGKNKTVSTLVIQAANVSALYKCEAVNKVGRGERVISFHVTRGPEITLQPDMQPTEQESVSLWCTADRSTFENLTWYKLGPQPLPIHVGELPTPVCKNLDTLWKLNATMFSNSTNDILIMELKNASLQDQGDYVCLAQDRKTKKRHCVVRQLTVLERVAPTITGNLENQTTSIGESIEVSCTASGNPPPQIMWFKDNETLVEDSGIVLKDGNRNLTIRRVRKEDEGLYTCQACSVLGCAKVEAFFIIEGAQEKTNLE

In the first test the target is VEGFR-2 on HUVEC and 293/KDR cells (human), P35968. The experiment in a line: cell-based or functional assay.
With ITMQIMRIKPHQGQHIGEMSF (modifications not checked) [VEGF 102-122], the inhibition of HUVEC migration (scratch wound assay, 50 ng/ml rhVEGF) turned out to be 50%.
Same read-out and setting: the result for ITMQCGIHQGQHPKIMICEMSF (modifications not checked) [VEGF-P3(NC)] reads 50%; that for ITMQCGIHQGQHPKIMICEMSF (modifications not checked) [VEGF-P3(CYC)], 50%.

For another test, the target named is T1, KDR-Fc (R&D System), P35968. The test is described as follows: SPR (BIAcore 3000), peptide on CM5 chip, KDR-Fc injected, 1:1 Langmuir fit.
For the molecule ITMQIMRIKPHQGQHIGEMSF (modifications not checked) [VEGF 102-122], the Kd is 45 nM.
The same measure, in the same setting: the result for ITMQCGIHQGQHPKIMICEMSF (modifications not checked) [VEGF-P3(NC)] reads 49 nM; that for ITMQCGIHQGQHPKIMICEMSF (modifications not checked) [VEGF-P3(CYC)], 11 nM.
